Experimental data as given in a protein production outcome set (Wang et al. 2014).

Experiment: label from the status in PepcDB records

Row | Sequence | protein production
1 | MDMKKYILSLSLLTVINSSAIATTQEGEEAYNKGYYEKAFILLSPEADKGDAKAQYLLGKMYYNAQGVTYNPEKTEQLLLASANQGNVDAQVLLAGFYWYLNTPEGYKKAFEWYQKAADQNNADGQYGLGYMYDTGTGVPQNSDTAMVWYKKAAEQGNSNAALAIGYNYDTGTGVKKDKTQALNWYAKAADLGNASAQYNLGLMYEQGDGVPKDYQKAAEYFEKAANQGHAKSQLELGYLYDSGKLGKSDLQKAAFWYQKSADLGNANAQFNLADMYFYGDGVGKSLEQSVYWMQKAAEQGYGKAQNQLGIYYRDGIGVAADPVKAYAWFTAAKNNGFEKAASNASDLEKSMNPEDLSKARILGQQYTDNYKAKK | failed
2 | MKIFVDGDGSPVKETVIEVAVEKALDVVIVTSVDHYSLKDYPENVSFVYVDKGADAADFKIVQLIKKGDLLITQDYGLASLVLPKGVLVLHQLGYQYTKENIDGLLEQRYFSGQIRRKGGRTKGPKPFTDQDRTTFKQALIELVKRSLLEHHHHHH | failed
3 | MEKVAFIGLGAMGYPMAGHLARRFPTLVWNRTFEKALRHQEEFGSEAVPLERVAEARVIFTCLPTTREVYEVAEALYPYLREGTYWVDATSGEPEASRRLAERLREKGVTYLDAPVSGGTSGAEAGTLTVMLGGPEEAVERVRPFLAYAKKVVHVGPVGAGHAVKAINNALLAVNLWAAGEGLLALVKQGVSAEKALEVINASSGRSNATENLIPQRVLTRAFPKTFALGLLVKDLGIAMGVLDGEKAPSPLLRLAREVYEMAKRELGPDADHVEALRLLERWGGVEIR | not failed
4 | DFNPEIFQLESYFKSKYHLKDIEIVSSRKDSDTSEIEKDLAHVAAAMIRKKIKENDKVGIAWGRTLSKVVEAMRPHPVSQVSFVPLAGGPSHINARYHVNTLVYEMSRRFQGSCTFINATLVQENANLAKGILTSKYFEGLMDNWEKLDVAIVGVGGKPKSNEQQWLDLLNQDDFQCLDEEAAVGEITCRFFNHSGDPVNQHLAKRTIGITLEQLQKVPNRIAVAHGNYKAAALLAVLKKGYINHLVTDFSTALNILRLDKDTFVDTIYQKS | failed
5 | MPNYINYPSWLHPEVIQGIPITWYSLSYILIILISYKFIWYQIQSDNVDIKKEDYEIFMFSLVLGAILGGRLASTLVYDKSGIYYSNPWLILLPFDQHWNFTGFRGMAIHGGFLGAIIAPLITINTNLKNTNVQKYFLKLTDYGSIAFSSGYILGRLANFANAELYGRVMKGGIIFPNAEPFDTNIPGVKEFASSVGLEISPHDLLINLPRIPSQLIEGFFEGPVTFLLLWFLFKKIKKYDGFIFGVYVMLYAFFRFFIEYLREPDKELGFIITYKPITSLSEFSFLNISMGQILSLTLMLSGLIWIIVTKKIADKKIKNNTNLAYKN | failed
6 | MSFSADALEGGLSSLKLAADKYRSILNDEKTGNIRWRYGGPPIFDTVNKLFEEERTHVQWRYDNPPDFNSVNQLFEEGQTKVWPEGSLEETVQNAIKSWEMEFSHKIRLQDFKTINPEKFKLFVNGREGLSAEETLRLGSYNALLKNSLPEEFQYYKPEEESFESSHDAFRSALPRGFAWEILSVYSGPPVIAFKFRHWGYFEGTFKGHAPTGEMVQFLGLGVLKVDESLRAEEIEIYYDPGELFGGLLKGPPISETKTTDSGDNTAEKQSCPFTH | failed
7 | MELNQPPLPTEIDGDAYHKPSFNDLGLKESVLKSVYEAGFTSPSPIQEKAIPAVLQGRDVIAQAQTGTGKTAAFALPIINNLKNNHTIEALVITPTRELAMQISDEIFKLGKHTRTKTVCVYGGQSVKKQCEFIKKNPQVMIATPGRLLDHLKNERIHKFVPKVVVLDESDEMLDMGFLDDIEEIFDYLPSEAQILLFSATMPEPIKRLADKILENPIKIHIAPSNITNTDITQRFYVINEHERAEAIMRLLDTQAPKKSIVFTRTKKEADELHQFLASKNYKSTALHGDMDQRDRRSSIMAFKKNDADVLVATDVASRGLDISGVSHVFNYHLPLNTESYIHRIGRTGRAGKKGMAITLVTPLEYKELLRMQKEIDSEIELFEIPTINENQIIKTLHDAKVSEGIISLYEQLTEIFEPSQLVLKLLSLQFETSKIGLNQQEIDAIQNPKEKTPKPSNKKTPQHERARSFKKGQHRDRHPKTNHYSKKPKRR | failed
8 | MMKQNPILITGGTGTVGSRIASRLIKLGYRVRIASRKKGALADAEYVYFNWKYASSFTPALEQVKQIYLVAPVGVFDPAPYVLPFLKEAKRLGAKRVVMQSASVVSENGPVFGALHQAVREFPEWTVLRPSYFMQNFINVQHRMSIQTEGRITTASGEGKLGFIDADDIAETAVRALIDDVPHQTHHILTGPEALSYAEAAEIIGAAAGRRVEHVSISRSELQHKMEAGGLPADYAHFMAKLDEAISHGAEHRVTDTVKRVTGKEPRSLSEFAAAHAAYWTSFWTELEHHHHHH | failed
9 | MDIAGYLSFFFASFTTLFIIIDPPGNLPIFIALTERFSDEYREKISKRATIIAFLILFITMVTGGKILDYFGVSISSLKIAGGILLFISSVDILLGGTRREAYKRRAEESIDVDSIAVFPLALPLYTGPGAITAGIVLYSQAGDVVMKLLVVLSAALVYSIVRLSHIYSAPIIRLLGRSGADIAARILAIFLAAIAVEFVFDGLAEKLVSMDL | failed
10 | MKRDVLYNRIILSVFLLSLVSCVAIYYAQQTNQYNTNFLGMQLVFLAIGTLTCFGVSRLPVEFLRHHAIWLYVIMVITLLGILIPNPLVQNINGATRWYRFAGLSFQPSEVVKSIFIFVLAHFAVKYQAQKWKQLGILTVLTGIVLLLIMKQPDLGTTIVYGVTALAIILLAIKSTKLMVGIITLILTAATVGMYVVVYHISLLEKIGFHAYQFSRIQTWLDPTTDPDAVYQLNLSMKAVGSGMMTGSSGTNAYIPESHTDMIFSTIGHQFGFVGVSLLLILFMVLIHQLIMAALLMKNTFSSLVLAGFAVSFAFNIFENIGMTVGLMPLTGIPLPFISYGGSAVLGNFIAVGVVLAIIRSDADLIEEK | failed
11 | MLEKLIERVLFATRWLLAPLCIAMSLVLVVLGYVFMKELWHMLSHLNTISETDLVLSALGLVDLLFMAGLVLMVLLASYESFVSKLDKVDASEITWLKHTDFNALKLKVSLSIVAISAIFLLKRYMSLEDVLSSIPKDTPLSHNPIFWQVVIHLVFVCSALLAAVTNNIAFSQNKAH | failed
12 | MYESANVSDDADRTAFRRAEKKYKLYYEQDSKFSRKKKLPKPIDLSELLDFNLISQNFNNDGVLPDGIRVSKVDSSPVFCIDNRPGFYFIPDALSLKEQCKWIKESLTSFPQPPNRTNHNAIYGPIDDLFDSAKENKVLVQDDLTNNKWKFYEEVDIEKATRSSCKSVSASVLLRKLRWSTLGLQFDWSKRNYDVSLPHNNIPDALCQLAKTHAAIAMPDGEEFRPEGAIVNYFGIGDTLGGHLDDMEADWSKPIVSMSLGCKAIFLLGGKSKDDPPHAMYLRSGDVVLMAGEARECFHGIPRIFTGEENADIGALESELSHESGHFFAEYIKTSRININIRQVF | not failed
13 | QLLEPIRDFEARKCPVHGKTMELFCQTDQTCICYLCMFQEHKNHSTVTVEEAKAEKETE | not failed
14 | SERRYKQLFDSGRDGIFVVQMDEEEGVAQIVEANWSAHEMFGYSQGAFEELAFASLVDKGEREGVERLLKELPLKGGALIESHFVLLEHRSIPIELSIQSFLLEEKRTLYVSARDIT | failed
15 | SAAPGPALCLFDVDGTLTAPRQKITKEMDDFLQKLRQKIKIGVVGGSDFEKVQEQLGNDVVEKYDYVFPENGLVAYKDGKLLCRQNIQSHLGEALIQDLINYCLSYIAKIKLPKKRGTFIEFRNGMLNVSPIGRSCSQEERIEFYELDKKENIRQKFVADLRKEFAGKGLTFSIGGQISFDVFPDGWDKRYCLRHVENDGYKTIYFFGDKTMPGGNDHEIFTDPRTMGYSVTAPEDTRRICELLFS | not failed
16 | MEYIKPHKGFSTLIILGITLGIDLIFSLLSTFINTYIVLRILEIFIVFFNIYQLYYILKSLTLKYCYDNENFYVLWCFGIRRVTIPFKEIEAYNVSHGEIKGVKLWGYGRNFFALGTFSVNDIGIVNMFVTATKNVIYIKCNSSIYGISPEKCDEVKNFLEKRKLVLKNWTYEKRNKVSLSKDRHFDILIFLISIVILMVTIIPFILYLRGVMPHKMPLSFDSNFKPMIYGTSREFAFKHMMYGAYNMIIFFCIYYSAYFYARYSKKLAYRLMYISFLVAFIFLIFQFKIYVTYIH | failed
17 | MKNELICYKQMPVWTKDNLPQMFQEKHNTKVGTWGKLTVLKGKLKFYELTENGDVIAEHIFTPESHIPFVEPQAWHRVEALSDDLECTLGFYCKKEDYFSKKYNTTAIHGDVVDAAKIISPCKVLDLGCGQGRNSLYLSLLGYDVTSWDHNENSIAFLNETKEKENLNISTALYDINAANIQENYDFIVSTVVFMFLNRERVPSIIKNMKEHTNVGGYNLIVAAMSTDDVPCPLPFSFTFAENELKEYYKDWEFLEYNENMGELHKTDENGNRIKMKFATMLARKK | not failed
18 | MSDELSDRVAQYLRWQVSDKVALLAQRYPDDTSLTLDWTDLARWDPTLAEDILDAPDSMLEYVERGIRDTPLPVDTSLGQATPRFENLPESHTTAPGEFSPSDRRGQLLALEGQVAKRTQVQPRLVEAAFECQRCGTLTRIPFEPGQFIEPFECVGCETKGPFRINPDQSRYEDYQKLLLENPSSAALGGDTSDIIAHLQGDLAGHGAIANCQDVVLVGELQFRGGGPIPEPQVVVNSVQAAGQTYQDAEFTADQRDLFERLRERPESFDVDIEDPSTADVLMAAAAPKFVSGSHPRDRQVVRGLVLQLVSASTFDGPDGSHYRGDVHVLLPGDPGTGKSVLAKWAAAVAPRSAFASGERVSGPGLTAAAVKDDFSDGGFSIEPGVLVRAHEGIAVVDELDKAGDDAIEKMHSALADQILPLSLGGQSMTLPAECGLLGVCNPLGGHFAGDESLVDALGINSPLLSRFDLIMQMRSKQDREHVRELAESMIRTWSASLKDATGQALDTADADTIDPVLSMDQYRAVLLRARQLHPTPANDRVIEALAAWFEEQKMALPERYRDALADADGQYHGPPVPVTARKLGAARRVAQAAARANLREEITMADVEVAKELVSRSLADLDIPIVHNAGLGGGDVNRREPADLSGVS | failed
19 | MSLRITRIRLYKTDLPYVDGSYGWGAGNAITVARASVVVIDTDAGLQGCGEFTPCGENYMIAHSEGVDAFARLAAPQLLGQDPRQVARMERLMDHLVQGHGYAKAPFDAAFWDILGQATGQPVWMLLGGKLCDGAPMYRVAPQRSEAETRAELARHRAAGYRQFQIKVGADWQSDIDRIRACLPLLEPGEKAMADANQGWRVDNAIRLARATRDLDYILEQPCRSYEECQQVRRVADQPMKLDECVTGLHMAQRIVADRGAEICCLKISNLGGLSKARRTRDFLIDNRMPVVAEDSWGGEIASAAVAHFAASTPEEFLINSTDLMNYNTRSTGLGGPTVHQGRLYASDTPGLGVTPDFNSLGAPVADWALPEGHHHHHH | not failed
20 | MSIESSATPTTPNAEALQLNSTEVRILGCLIEKQATNPETYPLTLNALVIACNQKTSRDPVMNLTQGQVGQSLRALEGRGLTRLVMGSRADRWEHKVDKGLELVPAQVILTGLLLLRGPQTVSELLTRSNRMHDFEDSEQVVHQLERLIARGLATLVPRQSGQREDRYMHLIGDPEDLQD | not failed
21 | MNLDALVSWSRAQFALTAMYHWLFVPLTLGLGVIMAIVETIYYRNGKPEWKRYAQFWQKLFGINFAIGVATGIILEFEFGTNWSNYSLFVGDIFGAPLAIEGILAFFMEATFIAVMFFGWNKVSKGFHLSATWLTIIGASLSAVWILIANAWMQEPVGMTFNPDTMRNEMTDFWALVFSSTAINKFWHTISSCWTLGSVFALGVCGIYLLRKDDKHKDFALKNIKIIAPFGLAASLITAFTGDTSAYNVAQKQPMKLAAMEALYDSGQTDKDGLTADGKGLPLSLFGILNPAKETPQDDKEAFLFNVSVPRVLSVLGTRNPSGYVPGINNILEGGYVKADGTTAIPVDSMMQRGRRAIMALNDYSKAKQAGDMEAALQHKSVIDENFPYFGYSYIQHKNDIVPPVGLTYYSFRIMVGLGMLFILLFLMAWLLSFKPEKFSKMRWFHMIAIVCMPLAWVASQSGWIVAEVGRQPWTIQDLLPVQAAVSKLEAGSVIITFFVFLVLFSALLVAELNIMRKAIKKGPETE | failed
